Variants at the floor of the assay were thinned out.
B1: TPR 5TU (parent)
chain: GGAUCUUCUCGAUCUAACAAAAAAGACAAAUCUGCCACAAAGCUUGAGAGCAUCUUCGGAUGCAGAGGCGGCAGCCUUCGGUGGCGCGAUAGCGCCAACGUUCUCAACUAUGACACGCAAAACGCGUGCUCCGUUGAAUGGAGUUUAUCAUG

Variants of: B1
Test: polymerase ribozyme fitness, log enrichment relative to wild type (log ratio); higher = more active; in vitro selection for triplet polymerase activity
Summary of the method: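 For each subunit of a heterodimeric triplet polymerase ribozyme, a mutant library was built by PCR and transcribed, then taken through a single in vitro selection round in triplicate. Selection involved annealing to a biotinylated primer, the partner subunit and triplets, incubation frozen at −7 °C, gel excision of extended constructs, capture on streptavidin beads and RT-PCR. Genotypes were retained after Illumina sequencing of inputs and outputs only with ≥10 input reads and ≥1 read in each output. Fitness is defined as the logarithm of a genotype's enrichment relative to wild-type enrichment, using inverse-variance-weighted averages across replicates, with the logarithm taken to base 2.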

| Variant | polymerase ribozyme fitness (log ratio) |
| --- | --- |
| U13C U44A U56A C79U C93G C95U A115C G141U | ≤ -4.2 |
| A3G A49C C51U G59C C95U C131G | ≤ -4.2 |
| C51G A91G | ≤ -4.2 |
| U53G U135C | -3.23 |
| C14G C76G A89C C93G C95G U127G U151G | ≤ -4.2 |
| C5A C85U C93U | -1.66 |
| G58C G83U | -2.88 |
| U9A U15A C93U C103G | ≤ -4.2 |
| A3G U13G U144C | 0.104 |
| U55A U61A C79A G83A U90G G143A | ≤ -4.2 |
| C38A U55G A60G | 0.135 |
| A21U G34A C69A C132G | ≤ -4.2 |
| G11U C57G A119U A121G C149U | -2.88 |
| A29G C51U G62A G84A U139G | ≤ -4.2 |
| U13G A40C C96G A119G | -1.98 |
| A49G G126U | -0.157 |
| A20U C57U G59U G62U C76U C96G A147G | ≤ -4.2 |
| A60G U144A | -0.159 |
| G92A C108U | ≤ -4.2 |
| C76A C85U G140C | -3.97 |
| G86U G88A A150C | ≤ -4.2 |

| Variant | polymerase ribozyme fitness (log ratio) |
| --- | --- |
| G46U G71C C95U A97U A115C G136U | ≤ -4.2 |
| C93A G94A | -2.93 |
| A37G C85U | -2.1 |
| U53G C57G G70C C79G A89U A91U C93U | ≤ -4.2 |
| A21C A52C C85U G117C | -0.924 |
| A60U C87A C95A C108A A110G | -4.07 |
| C118U U146C | -1.27 |
| U61A A97G G136A | -0.653 |
| U4C A16C A17C | -0.602 |
| G83C C125A U144A | -2.36 |
| C18U A20U C103A G124A | -3.82 |
| A16G A41C U55G A142C | -3.52 |
| C36U G50U C54U C99U | -4.14 |
| A39U C76A G86C G126A C132U U134A | ≤ -4.2 |
| U6G C75G U90A G92U | ≤ -4.2 |
| U9G A20C A29U C35U A47C C54U U56A C96A U130G | ≤ -4.2 |
| A40C U56A G128C | -3.92 |
| A73U U102G | ≤ -4.2 |
| A22G C72G C87U C93A C99A | ≤ -4.2 |
| G11C C63U C79U G86C | ≤ -4.2 |
| A17C G25A G62U G117U | -2.71 |

| Variant | polymerase ribozyme fitness (log ratio) |
| --- | --- |
| A39G G80C C93U C118U | -3.96 |
| C8U U44G U55A C79U G88A A110U | ≤ -4.2 |
| A60U C85A U145A | -1.8 |
| C93G U102G | ≤ -4.2 |
| C32G A49U G74U U77G A89U | ≤ -4.2 |
| G92A C99U G117U U151G | ≤ -4.2 |
| A47C G59A G84U G94U G124A | -3.56 |
| C96U G133A | -3.92 |
| G50C C51A | -0.896 |
| G83C C93G | ≤ -4.2 |
| C35A U101C | -3.87 |
| A66G G100C A107C C114U A122C G133C | ≤ -4.2 |
| C27G C51U | -3.97 |
| U53A U130G A142C | -0.549 |
| U82C | -0.0678 |
| C10A A12G A23C U55A | ≤ -4.2 |
| G42A A60G C87G | ≤ -4.2 |
| C38A U56A G74C G92U U109G | ≤ -4.2 |
| C14G C85G C131A | ≤ -4.2 |
| C35A A39G G141U | ≤ -4.2 |
| G50A G62A G117A | -1.7 |

| Variant | polymerase ribozyme fitness (log ratio) |
| --- | --- |
| U6C A21U U101A U104A U148A | ≤ -4.2 |
| A47C C129G | -4.19 |
| A12G A24U G34A G92U G126C | -1.83 |
| A22U C108U | -2.85 |
| U53A U55A G83U C123A G128U A147U | ≤ -4.2 |
| G68A C79U U139G U146C | ≤ -4.2 |
| A47C C57A G84U A89C | -1.5 |
| U82C G84A G117U | -0.688 |
| A17U C18A C35U C36G C105A | ≤ -4.2 |
| A12U G25C A47G U56A C93G C108G | ≤ -4.2 |
| A89G A98U | -1.66 |
| A19C A66C G94A U134G | ≤ -4.2 |
| C14A A64U C93U G141A | ≤ -4.2 |
| A12U G84U | -1.97 |
| U55A U78G G94U C114G | ≤ -4.2 |
| G42C A49G A138C | ≤ -4.2 |
| C105G U134C G140U | -4.18 |
| C75G U82G A91C | ≤ -4.2 |
| A66U G88A U145G U148C A150C | ≤ -4.2 |
| G48C G58C C63A G74C G81A A89U A137C | ≤ -4.2 |

— the RNAGym collection of RNA variant scans (doi:10.1073/pnas.2313332121)
